In patent publication US20160160255A1, “Methods and Materials for Producing 6-Carbon Monomers” (INVISTA North America S.á.r.l., priority 2014, published 2016):

Legend:
Assay type in all cases: biochemical
[1] = ω-transaminase activity, 6-aminohexanoate to adipate semialdehyde (reverse direction); conditions: cell free extract, 10 mM 6-aminohexanoate, 10 mM pyruvate, pH 7.5, 25° C., 24 h, RP-HPLC
Method: (§1) A nucleotide sequence encoding a His-tag was added to the nucleic acid sequences from Chromobacterium violaceum, Pseudomonas aeruginosa, Pseudomonas syringae, Rhodobacter sphaeroides, and Vibrio fluvialis encoding the ω-transaminases of SEQ ID NOs: 7, 8, 9, 10 and 12, respectively (see FIG. 6) such that N-terminal HIS tagged ω-transaminases could be produced. Each of the resulting modified genes was cloned into a pET21a expression vector under control of the T7 promoter and each expression vector was transformed into a BL21[DE3] E. coli host. The resulting recombinant E. coli strains were cultivated at 37° C. in a 250 mL shake flask culture containing 50 mL LB media and antibiotic selection pressure, with shaking at 230 rpm. Each culture was induced overnight at 16° C. using 1 mM IPTG.
(§2) The pellet from each induced shake flask culture was harvested via centrifugation. Each pellet was resuspended and lysed via sonication. The cell debris was separated from the supernatant via centrifugation and the cell free extract was used immediately in enzyme activity assays.
Enzyme activity assays in the reverse direction (i.e., 6-aminohexanoate to adipate semialdehyde) were performed in a buffer composed of a final concentration of 50 mM HEPES buffer (pH=7.5), 10 mM 6-aminohexanoate, 10 mM pyruvate and 100 μM pyridoxyl 5′ phosphate. Each enzyme activity assay reaction was initiated by adding cell free extract of the ω-transaminase gene product or the empty vector control to the assay buffer containing the 6-aminohexanoate and incubated at 25° C. for 24 h, with shaking at 250 rpm. The formation of L-alanine from pyruvate was quantified via RP-HPLC.

[2] = ω-transaminase activity, adipate semialdehyde to 6-aminohexanoate (forward direction); conditions: cell free extract, 10 mM adipate semialdehyde, 10 mM L-alanine, pH 7.5, 25° C., 4 h, RP-HPLC
Method: as §1, §2
Enzyme activity in the forward direction (i.e., adipate semialdehyde to 6-aminohexanoate) was confirmed for the transaminases of SEQ ID NO 7, SEQ ID NO 8, SEQ ID NO 9, SEQ ID NO 10 and SEQ ID NO 12. Enzyme activity assays were performed in a buffer composed of a final concentration of 50 mM HEPES buffer (pH=7.5), 10 mM adipate semialdehyde, 10 mM L-alanine and 100 μM pyridoxyl 5′ phosphate. Each enzyme activity assay reaction was initiated by adding a cell free extract of the ω-transaminase gene product or the empty vector control to the assay buffer containing the adipate semialdehyde and incubated at 25° C. for 4 h, with shaking at 250 rpm. The formation of pyruvate was quantified via RP-HPLC.

[3] = carboxylate reductase activity, adipate semialdehyde to hexanedial; conditions: purified enzyme with sfp phosphopantetheine transferase, 2 mM adipate semialdehyde, pH 7.5, room temperature, 20 min
Method: The N-terminal His-tagged carboxylate reductase of SEQ ID NO 6 (see Example 2 and FIG. 6) was assayed using adipate semialdehyde as substrate. The enzyme activity assay was performed in triplicate in a buffer composed of a final concentration of 50 mM HEPES buffer (pH=7.5), 2 mM adipate semialdehyde, 10 mM MgCl2, 1 mM ATP and 1 mM NADPH. The enzyme activity assay reaction was initiated by adding purified carboxylate reductase and phosphopantetheine transferase or the empty vector control to the assay buffer containing the adipate semialdehyde and then incubated at room temperature for 20 min. The consumption of NADPH was monitored by absorbance at 340 nm.

Q: What does the source list for “SEQ ID NO 10: Rhodobacter sphaeroides ω-transaminase, Genbank Accession No. ABA81135.1, N-terminal His-tagged”?
A: acceptance of 6-aminohexanoate as substrate (conversion of pyruvate to L-alanine vs empty vector control) [1]: accepted 6-aminohexanote as substrate; acceptance of adipate semialdehyde as substrate (conversion of L-alanine to pyruvate vs empty vector control) [2]: accepted adipate semialdehyde as substrate

B1: SEQ ID NO 7: Chromobacterium violaceum ω-transaminase, Genbank Accession No. AAQ59697.1, N-terminal His-tagged (protein, listed as Chromobacterium violaceum)
chain: MQKQRTTSQWRELDAAHHLHPFTDTASLNQAGARVMTRGEGVYLWDSEGNKIIDGMAGLWCVNVGYGRKDFAEAARRQMEELPFYNTFFKTTHPAVVELSSLLAEVTPAGFDRVFYTNSGSESVDTMIRMVRRYWDVQGKPEKKTLIGRWNGYHGSTIGGASLGGMKYMHEQGDLPIPGMAHIEQPWWYKHGKDMTPDEFGVVAARWLEEKILEIGADKVAAFVGEPIQGAGGVIVPPATYWPEIERICRKYDVLLVADEVICGFGRTGEWFGHQHFGFQPDLFTAAKGLSSGYLPIGAVFVGKRVAEGLIAGGDFNHGFTYSGHPVCAAVAHANVAALRDEGIVQRVKDDIGPYMQKRWRETFSRFEHVDDVRGVGMVQAFTLVKNKAKRELFPDFGEIGTLCRDIFFRNNLIMRACGDHIVSAPPLVMTRAEVDEMLAVAERCLEEFEQTLKARGLA
modifications: N-terminal His tag
Q: With B1 as the molecule, how does the “acceptance of 6-aminohexanoate as substrate (conversion of pyruvate to L-alanine vs empty vector control)” value [1] read?
A: accepted 6-aminohexanote as substrate

Q: And the “acceptance of adipate semialdehyde as substrate (conversion of L-alanine to pyruvate vs empty vector control)” value [2]?
A: accepted adipate semialdehyde as substrate

B2: SEQ ID NO 9: Pseudomonas syringae ω-transaminase, Genbank Accession No. AAY39893.1, N-terminal His-tagged (protein, listed as Pseudomonas syringae)
chain: MSANNPQTLEWQALSSEHHLAPFSDYKQLKEKGPRIITRAEGVYLWDSEGNKILDGMSGLWCVAIGYGREELADAASKQMRELPYYNLFFQTAHPPVLELAKAISDIAPEGMNHVFFTGSGSEGNDTMLRMVRHYWALKGQPNKKTIISRVNGYHGSTVAGASLGGMTYMHEQGDLPIPGVVHIPQPYWFGEGGDMTPDEFGIWAAEQLEKKILELGVENVGAFIAEPIQGAGGVIVPPDSYWPKIKEILSRYDILFAADEVICGFGRTSEWFGSDFYGLRPDMMTIAKGLTSGYVPMGGLIVRDEIVAVLNEGGDFNHGFTYSGHPVAAAVALENIRILREEKIVERVRSETAPYLQKRLRELSDHPLVGEVRGVGLLGAIELVKDKTTRERYTDKGAGMICRTFCFDNGLIMRAVGDTMIIAPPLVISFAQIDELVEKARTCLDLTLAVLQG
modifications: N-terminal His tag
Q: For B2, which “acceptance of 6-aminohexanoate as substrate (conversion of pyruvate to L-alanine vs empty vector control)” value [1] is on record?
A: accepted 6-aminohexanote as substrate

Q: And the “acceptance of adipate semialdehyde as substrate (conversion of L-alanine to pyruvate vs empty vector control)” value [2]?
A: accepted adipate semialdehyde as substrate

B3: SEQ ID NO 6: Segniliparus rotundus carboxylate reductase, Genbank Accession No. ADG98140.1, N-terminal His-tagged (protein, listed as Segniliparus rotundus)
chain: MTQSHTQGPQASAAHSRLARRAAELLATDPQAAATLPDPEVVRQATRPGLRLAERVDAILSGYADRPALGQRSFQTVKDPITGRSSVELLPTFDTITYRELRERATAIASDLAHHPQAPAKPGDFLASIGFISVDYVAIDIAGVFAGLTAVPLQTGATLATLTAITAETAPTLFAASIEHLPTAVDAVLATPSVRRLLVFDYRAGSDEDREAVEAAKRKIADAGSSVLVDVLDEVIARGKSAPKAPLPPATDAGDDSLSLLIYTSGSTGTPKGAMYPERNVAHFWGGVWAAAFDEDAAPPVPAINITFLPLSHVASRLSLMPTLARGGLMHFVAKSDLSTLFEDLKLARPTNLFLVPRVVEMLYQHYQSELDRRGVQDGTREAEAVKDDLRTGLLGGRILTAGFGSAPLSAELAGFIESLLQIHLVDGYGSTEAGPVWRDGYLVKPPVTDYKLIDVPELGYFSTDSPHPRGELAIKTQTILPGYYKRPETTAEVFDEDGFYLTGDVVAQIGPEQFAYVDRRKNVLKLSQGEFVTLAKLEAAYSSSPLVRQLFVYGSSERSYLLAVIVPTPDALKKFGVGEAAKAALGESLQKIARDEGLQSYEVPRDFIIETDPFTVENGLLSDARKSLRPKLKEHYGERLEAMYKELADGQANELRDIRRGVQQRPTLETVRRAAAAMLGASAAEIKPDAHFTDLGGDSLSALTFSNFLHDLFEVDVPVGVIVSAANTLGSVAEHIDAQLAGGRARPTFATVHGKGSTTIKASDLTLDKFIDEQTLEAAKHLPKPADPPRTVLLTGANGWLGRFLALEWLERLAPAGGKLITIVRGKDAAQAKARLDAAYESGDPKLAGHYQDLAATTLEVLAGDFSEPRLGLDEATWNRLADEVDFISHPGALVNHVLPYNQLFGPNVAGVAEIIKLAITTRIKPVTYLSTVAVAAGVEPSALDEDGDIRTVSAERSVDEGYANGYGNSKWGGEVLLREAHDRTGLPVRVFRSDMILAHQKYTGQVNATDQFTRLVQSLLATGLAPKSFYELDAQGNRQRAHYDGIPVDFTAESITTLGGDGLEGYRSYNVFNPHRDGVGLDEFVDWLIEAGHPITRIDDYDQWLSRFETSLRGLPESKRQASVLPLLHAFARPGPAVDGSPFRNTVFRTDVQKAKIGAEHDIPHLGKALVLKYADDIKQLGLL
modifications: N-terminal His tag
Q: With B3 as the molecule, how does the “acceptance of adipate semialdehyde as substrate (NADPH consumption, absorbance at 340 nm, vs empty vector control)” value [3] read?
A: accepted adipate semialdehyde as substrate

B4: SEQ ID NO 12: Vibrio fluvialis ω-transaminase, Genbank Accession No. AEA39183.1, N-terminal His-tagged (protein, listed as Vibrio fluvialis)
chain: MNKPQSWEARAETYSLYGFTDMPSLHQRGTVVVTHGEGPYIVDVNGRRYLDANSGLWNMVAGFDHKGLIDAAKAQYERFPGYHAFFGRMSDQTVMLSEKLVEVSPFDSGRVFYTNSGSEANDTMVKMLWFLHAAEGKPQKRKILTRWNAYHGVTAVSASMTGKPYNSVFGLPLPGFVHLTCPHYWRYGEEGETEEQFVARLARELEETIQREGADTIAGFFAEPVMGAGGVIPPAKGYFQAILPILRKYDIPVISDEVICGFGRTGNTWGCVTYDFTPDAIISSKNLTAGFFPMGAVILGPELSKRLETAIEAIEEFPHGFTASGHPVGCAIALKAIDVVMNEGLAENVRRLAPRFEERLKHIAERPNIGEYRGIGFMWALEAVKDKASKTPFDGNLSVSERIANTCTDLGLICRPLGQSVVLCPPFILTEAQMDEMFDKLEKALDKVFAEVA
modifications: N-terminal His tag
Q: What does the source list for B4?
A: acceptance of 6-aminohexanoate as substrate (conversion of pyruvate to L-alanine vs empty vector control) [1]: accepted 6-aminohexanote as substrate; acceptance of adipate semialdehyde as substrate (conversion of L-alanine to pyruvate vs empty vector control) [2]: accepted adipate semialdehyde as substrate

B5: SEQ ID NO 8: Pseudomonas aeruginosa ω-transaminase, Genbank Accession No. AAG08191.1, N-terminal His-tagged (protein, listed as Pseudomonas aeruginosa)
chain: MNARLHATSPLGDADLVRADQAHYMHGYHVFDDHRVNGSLNIAAGDGAYIYDTAGNRYLDAVGGMWCTNIGLGREEMARTVAEQTRLLAYSNPFCDMANPRAIELCRKLAELAPGDLDHVFLTTGGSTAVDTAIRLMHYYQNCRGKRAKKHVITRINAYHGSTFLGMSLGGKSADRPAEFDFLDERIHHLACPYYYRAPEGLGEAEFLDGLVDEFERKILELGADRVGAFISEPVFGSGGVIVPPAGYHRRMWELCQRYDVLYISDEVVTSFGRLGHFFASQAVFGVQPDIILTAKGLTSGYQPLGACIFSRRIWEVIAEPDKGRCFSHGFTYSGHPVACAAALKNIEIIEREGLLAHADEVGRYFEERLQSLRDLPIVGDVRGMRFMACVEFVADKASKALFPESLNIGEWVHLRAQKRGLLVRPIVHLNVMSPPLILTREQVDTVVRVLRESIEETVEDLVRAGHR
modifications: N-terminal His tag
Q: Which “acceptance of adipate semialdehyde as substrate (conversion of L-alanine to pyruvate vs empty vector control)” value [2] does the source give for B5 here?
A: accepted adipate semialdehyde as substrate
